This is an account of results in article PMC11997335.

Experiment in all cases: single-molecule TIRF real-time association assay
For test [1], the target named is human cytoplasmic dynein-1 complex (human) (UniProt Q14204).
Test [2] has the same target. The source holds these as a separate data set.
For test [3] the target is unchanged. The source holds these as a separate data set.

Read-outs that look alike come from different tables or passages of the source.

As to “BicD2 (amino acids 1–598) with N-terminal HaloTag (from UniProt Q8TD16 1-598) (domain or fragment)”, in test [1], the koff (commonly the first-order rate constant of dissociation) worked out at 0.137 s⁻¹ and the percent of complexes long-lived (>80 s) was 37%. Besides, in test [2], the fraction of dynein molecules bound by the end of data acquisition is < 25%, the koff stood at 0.038 s⁻¹, the percent of complexes long-lived (>80 s) was 6% and the percent of complexes medium-lived (20–80 s) worked out at 22%. The same substance displayed a percent of complexes short-lived (<20 s) in test [2] of 72%.
With “NINL (amino acids 1–702) with N-terminal HaloTag (from UniProt Q9Y2I6 1-702) (domain or fragment)”, in test [1], the dwell time, major peak was found to be 5 s; the koff amounted to 0.0627 s⁻¹; the kon (usually a measure of how fast the partners come together) turned out to be 9.21e+06 M⁻¹ s⁻¹; the percent of binding events short-lived (<20 s) turned out to be 32%. In test [1], the percent of complexes long-lived (>80 s) turned out to be 16%, the percent of complexes medium-lived (20–80 s) was 37% and the percent of complexes short-lived (<20 s) is 47%. In addition, in test [3], the kon is 7.97e+06 M⁻¹ s⁻¹. Further, the fraction of dynein molecules bound by the end of data acquisition in test [2] turned out to be 60%.
With “dynactin complex purified from HEK293T cells stably expressing p62-Halo-3xFLAG (from UniProt Q9UJW0;Q14203;P61163)”, in test [1], the dwell time, major peak came to 5 s; the percent of binding events short-lived (<20 s) was found to be 30%; the percent of complexes long-lived (>80 s) came out at 9%; the percent of complexes medium-lived (20–80 s) was 22%. Besides, in test [1], the percent of complexes short-lived (<20 s) worked out at 69%.
